The source of these data is patent publication US20260242478A1 (published 2026).

Where no end group is shown, it is not given here.

The target in experiment [1] is Anti-CD28 Fab (SEQ ID NOs: 696, 697). Description: phage ELISA; clonal phage on biotinylated anti-CD28 Fab captured on neutravidin, anti-M13 HRP detection.
Target sequence in this assay (VH, as listed by the source, chain 1 of 2): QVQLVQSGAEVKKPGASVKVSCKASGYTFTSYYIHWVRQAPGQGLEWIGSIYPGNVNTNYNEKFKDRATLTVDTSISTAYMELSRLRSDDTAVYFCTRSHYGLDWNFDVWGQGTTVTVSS
Target sequence in this assay (VL, as listed by the source, chain 2 of 2): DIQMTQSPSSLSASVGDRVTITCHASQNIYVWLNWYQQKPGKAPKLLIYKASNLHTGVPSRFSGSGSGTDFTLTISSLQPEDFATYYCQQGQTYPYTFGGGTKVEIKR
Description: (§1) After panning, phage infected bacteria were plated out and colonies picked into 96 well blocks. Clonal phage was then amplified and separated from bacterial cells via centrifugation.
(§2) Clonal phage were harvested as crude supematants and screened via standard ELISAs. […] Prior to the addition of clonal phage, wells were incubated with blocking buffer and CD28 antigen or blocking buffer alone. Without washing or aspirating, clonal phage supematants were then added to the wells and incubated for a short time. Wells were then washed followed by detection of bound phage using a horse radish conjugated anti-M13 antibody. Clonal phage of interest were then sent for sequence analysis.
The target is the same in experiment [2]. Description: phage ELISA on captured anti-CD28 Fab; competitor CD28 antigen pre-incubated in the wells.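 Note: clonal phage supernatants added to wells preloaded with CD28 antigen in blocking buffer, control wells buffer only, bound phage read via HRP-linked anti-M13 antibody.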
Target sequence in this assay (VH, as listed by the source, chain 1 of 2): as the sequence (VH, as listed by the source, chain 1 of 2) above
Target sequence in this assay (VL, as listed by the source, chain 2 of 2): as the sequence (VL, as listed by the source, chain 2 of 2) above
Description: as §1, §2
The target of experiment [3] is T1, Anti-CD28 Fab (SEQ ID NOs: 696, 697).
T1 construct: Biotinylated and captured on neutravidin coated plates in the phage ELISA
The experiment can be described thus: phage binding ELISA on captured anti-CD28 Fab, wells pre-incubated with CD28 antigen as competitor; anti-M13 HRP detection.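 Note: crude clonal phage supernatants added to wells preloaded with CD28 antigen, bound phage read by HRP-conjugated anti-M13 antibody, control wells got blocking buffer alone without CD28.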
T1 sequence (VH, as listed by the source, chain 1 of 2): as the sequence (VH, as listed by the source, chain 1 of 2) above
T1 sequence (VL, as listed by the source, chain 2 of 2): as the sequence (VL, as listed by the source, chain 2 of 2) above
Description: as §1, §2

The target is the same in experiment [4]. The experiment can be described thus: phage binding ELISA; clonal phage supernatant on biotinylated anti-CD28 Fab captured on neutravidin plate; anti-M13 HRP detection.
Target sequence in this assay (VH, as listed by the source, chain 1 of 2): as the sequence (VH, as listed by the source, chain 1 of 2) above
Target sequence in this assay (VL, as listed by the source, chain 2 of 2): as the sequence (VL, as listed by the source, chain 2 of 2) above
Description: as §1, §2
In experiment [5] the target is T2, Anti-CD28 Fab (SEQ ID NOs: 696, 697).
T2 construct: In the phage ELISA the Fab was biotinylated and captured on neutravidin coated plates
Description: phage binding ELISA on captured anti-CD28 Fab, wells pre-incubated with CD28 antigen as competitor.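 Note: crude clonal phage supernatants added to wells preloaded with CD28 antigen, bound phage read by HRP-conjugated anti-M13 antibody, control wells got blocking buffer alone without CD28.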
T2 sequence (VH, as listed by the source, chain 1 of 2): as the sequence (VH, as listed by the source, chain 1 of 2) above
T2 sequence (VL, as listed by the source, chain 2 of 2): as the sequence (VL, as listed by the source, chain 2 of 2) above
Description: as §1, §2

Experiment [6] has the same target. The experiment can be described thus: phage binding ELISA, clonal phage on biotinylated anti-CD28 Fab captured on neutravidin plates, anti-M13 HRP detection.
Target sequence in this assay (VH, as listed by the source, chain 1 of 2): as the sequence (VH, as listed by the source, chain 1 of 2) above
Target sequence in this assay (VL, as listed by the source, chain 2 of 2): as the sequence (VL, as listed by the source, chain 2 of 2) above
Description: as §1, §2

Turning to YCDGHLAEYMVKCL [Phage-825 (Peptide-87 library peptide, SEQ ID NO: 1141)], the “Phage binding ELISA, Anti-CD28 Fab signal” value in experiment [1] came out at 1.79. The “Phage binding ELISA, Anti-CD28 Fab signal in the presence of CD28” value (“Phage binding ELISA … of CD28” below) in experiment [2] is 0.08.

On to YCEGHLPIYMSKCL [Phage-838 (Peptide-87 library sequence, SEQ ID NO: 1154)], for which, in experiment [3], the “Phage binding ELISA … of CD28” value amounted to 0.09. In experiment [4], the “Phage binding ELISA, Anti-CD28 Fab signal” value came out at 1.76.

With YCAGHVPEYMAKCL [Phage-829 (Peptide-87 library sequence, SEQ ID NO: 1145)], in experiment [3], the “Phage binding ELISA … of CD28” value worked out at 0.07. In experiment [4], the “Phage binding ELISA, Anti-CD28 Fab signal” value amounted to 1.78.

With YCEGHHPQYMAKCL [Phage-828 (Peptide-87 library sequence, SEQ ID NO: 1144)], the “Phage binding ELISA … of CD28” value in experiment [3] worked out at 0.09. The “Phage binding ELISA, Anti-CD28 Fab signal” value in experiment [4] came to 1.78.

B1: Phage-840 (peptide)
peptide: YCDGHSPQYMQKCL
modifications: cysteine pairing not given here; also: displayed on phage by fusion to pIII, pIII and linker sequence not given here
notes: Peptide-87 library clone, tested as clonal phage supernatant
Turning to B1, the “Anti-CD28 Fab signal in the presence of CD28” value in experiment [5] stood at 0.07. For the same molecule, in experiment [6], the “Anti-CD28 Fab (SEQ ID NOs: 696, 697) signal” value came to 1.76.

Consider YCDGHLDEYMEKCL [Phage-836 (Peptide-87 library sequence, SEQ ID NO: 1152)], for which, in experiment [3], the “Phage binding ELISA … of CD28” value stood at 0.08. Also, the “Phage binding ELISA, Anti-CD28 Fab signal” value in experiment [4] was 1.76.

Take YCAGHLPQYMNKCL [Phage-815 (Peptide-87 library peptide, SEQ ID NO: 1131)]: the “Phage binding ELISA, Anti-CD28 Fab signal” value in experiment [1] is 1.81. Besides, the “Phage binding ELISA … of CD28” value in experiment [2] is 0.06.

In the case of YCEGHSPEYMRKCL [Phage-835 (Peptide-87 library sequence, SEQ ID NO: 1151)], the “Phage binding ELISA … of CD28” value in experiment [3] stood at 0.08. The “Phage binding ELISA, Anti-CD28 Fab signal” value in experiment [4] came out at 1.77.

As to YCAGHLPMYMAKCL [Phage-817 (Peptide-87 library peptide, SEQ ID NO: 1133)], the “Phage binding ELISA, Anti-CD28 Fab signal” value in experiment [1] is 1.8. Further, the “Phage binding ELISA … of CD28” value in experiment [2] came out at 0.08.

Turning to YCDGHSPEYIAKCL [Phage-824 (Peptide-87 library peptide, SEQ ID NO: 1140)], in experiment [1], the “Phage binding ELISA, Anti-CD28 Fab signal” value worked out at 1.79. In addition, the “Phage binding ELISA … of CD28” value in experiment [2] is 0.23.

B2: Phage-846 (peptide)
peptide: YCEGHLAQYMNKCL
notes: as for B1
On to B2, for which the “Anti-CD28 Fab signal in the presence of CD28” value in experiment [5] is 0.07. Besides, the “Anti-CD28 Fab (SEQ ID NOs: 696, 697) signal” value in experiment [6] stood at 1.76.

Take YCVGHLQEYMEKCL [Phage-839 (Peptide-87 library sequence, SEQ ID NO: 1155)]: in experiment [3], the “Phage binding ELISA … of CD28” value is 0.06. Moreover, the “Phage binding ELISA, Anti-CD28 Fab signal” value in experiment [4] was 1.76.

B3: Phage-851 (peptide)
peptide: YCEGHSAEYMLKCL
notes: as for B1
Take B3: the “Anti-CD28 Fab signal in the presence of CD28” value in experiment [5] was 0.07. In addition, the “Anti-CD28 Fab (SEQ ID NOs: 696, 697) signal” value in experiment [6] was determined as 1.75.

B4: Phage-848 (peptide)
peptide: YCHGHLQEYMAKCL
notes: as for B1
For the molecule B4, in experiment [5], the “Anti-CD28 Fab signal in the presence of CD28” value came to 0.07. The “Anti-CD28 Fab (SEQ ID NOs: 696, 697) signal” value in experiment [6] was determined as 1.76.

With YCDGHLGVYMAKCL [Phage-822 (Peptide-87 library peptide, SEQ ID NO: 1138)], the “Phage binding ELISA, Anti-CD28 Fab signal” value in experiment [1] came to 1.79. Also, in experiment [2], the “Phage binding ELISA … of CD28” value was found to be 0.07.

With YCAGHLPEYMLKCL [Phage-837 (Peptide-87 library sequence, SEQ ID NO: 1153)], in experiment [3], the “Phage binding ELISA … of CD28” value is 0.09. For the same molecule, the “Phage binding ELISA, Anti-CD28 Fab signal” value in experiment [4] was 1.76.

B5: Phage-849 (peptide)
peptide: YCDGHSPEYMNKCL
notes: as for B1
As for B5, the “Anti-CD28 Fab signal in the presence of CD28” value in experiment [5] was 0.06. Also, the “Anti-CD28 Fab (SEQ ID NOs: 696, 697) signal” value in experiment [6] was 1.75.

For YCEGHLDEYMWKCL [Phage-831 (Peptide-87 library sequence, SEQ ID NO: 1147)], in experiment [3], the “Phage binding ELISA … of CD28” value was determined as 0.06. Moreover, the “Phage binding ELISA, Anti-CD28 Fab signal” value in experiment [4] was determined as 1.77.

Regarding YCDGHKAEYMEKCL [Phage-816 (Peptide-87 library peptide, SEQ ID NO: 1132)], the “Phage binding ELISA, Anti-CD28 Fab signal” value in experiment [1] stood at 1.81. Besides, the “Phage binding ELISA … of CD28” value in experiment [2] came out at 0.09.

B6: Phage-852 (peptide)
peptide: YCDGHHIEYLAKCL
notes: as for B1
For the molecule B6, the “Anti-CD28 Fab signal in the presence of CD28” value in experiment [5] turned out to be 0.1. In experiment [6], the “Anti-CD28 Fab (SEQ ID NOs: 696, 697) signal” value amounted to 1.75.

B7: Phage-850 (peptide)
peptide: YCDGHAPVYMAKCL
notes: as for B1
Turning to B7, the “Anti-CD28 Fab signal in the presence of CD28” value in experiment [5] was 0.06. Further, the “Anti-CD28 Fab (SEQ ID NOs: 696, 697) signal” value in experiment [6] stood at 1.75.

B8: Phage-844 (peptide)
peptide: YCDGHKPQYMEKCL
notes: as for B1
On to B8, for which the “Anti-CD28 Fab signal in the presence of CD28” value in experiment [5] was 0.08. For the same molecule, the “Anti-CD28 Fab (SEQ ID NOs: 696, 697) signal” value in experiment [6] is 1.76.

B9: Phage-845 (peptide)
peptide: YCDGHIGEYMVKCL
notes: as for B1
Consider B9, for which the “Anti-CD28 Fab signal in the presence of CD28” value in experiment [5] stood at 0.66. In experiment [6], the “Anti-CD28 Fab (SEQ ID NOs: 696, 697) signal” value was found to be 1.76.

In the case of YCVGHAPEFMAKCL [Phage-819 (Peptide-87 library peptide, SEQ ID NO: 1135)], the “Phage binding ELISA, Anti-CD28 Fab signal” value in experiment [1] was found to be 1.8. In addition, the “Phage binding ELISA … of CD28” value in experiment [2] came to 0.1.

As to YCDGLASEYMSKCL [Phage-832 (Peptide-87 library sequence, SEQ ID NO: 1148)], in experiment [3], the “Phage binding ELISA … of CD28” value was determined as 0.05. The “Phage binding ELISA, Anti-CD28 Fab signal” value in experiment [4] turned out to be 1.77.

Regarding YCDGHSAEYITKCL [Phage-830 (Peptide-87 library sequence, SEQ ID NO: 1146)], the “Phage binding ELISA … of CD28” value in experiment [3] was 0.06. Besides, the “Phage binding ELISA, Anti-CD28 Fab signal” value in experiment [4] turned out to be 1.77.

With YCEGHLPAYMQKCL [Phage-827 (Peptide-87 library sequence, SEQ ID NO: 1143)], the “Phage binding ELISA … of CD28” value in experiment [3] amounted to 0.07. Also, the “Phage binding ELISA, Anti-CD28 Fab signal” value in experiment [4] worked out at 1.78.

Turning to YCDGHLSEYMFKCL [Phage-821 (Peptide-87 library peptide, SEQ ID NO: 1137)], in experiment [1], the “Phage binding ELISA, Anti-CD28 Fab signal” value came out at 1.79. In addition, the “Phage binding ELISA … of CD28” value in experiment [2] stood at 0.1.

Take YCAGHAEQYMAKCL [Phage-820 (Peptide-87 library peptide, SEQ ID NO: 1136)]: the “Phage binding ELISA, Anti-CD28 Fab signal” value in experiment [1] was 1.8. In addition, the “Phage binding ELISA … of CD28” value in experiment [2] came out at 0.08.

Turning to YCDGHTREYIDKCL [Phage-818 (Peptide-87 library peptide, SEQ ID NO: 1134)], in experiment [1], the “Phage binding ELISA, Anti-CD28 Fab signal” value came out at 1.8. Also, in experiment [2], the “Phage binding ELISA … of CD28” value turned out to be 0.08.

B10: Phage-841 (peptide)
peptide: YCDGHIPEYLAKCL
modifications: cysteine pairing not given here; also: displayed on phage by fusion to pIII, pIII and linker sequence not given here
notes: as for B1
Regarding B10, the “Anti-CD28 Fab signal in the presence of CD28” value in experiment [5] came to 0.06. Further, the “Anti-CD28 Fab (SEQ ID NOs: 696, 697) signal” value in experiment [6] was determined as 1.76.

YCDGHTSEYITKCL [Phage-823 (Peptide-87 library peptide, SEQ ID NO: 1139)]: in experiment [1], the “Phage binding ELISA, Anti-CD28 Fab signal” value amounted to 1.79. Further, the “Phage binding ELISA … of CD28” value in experiment [2] stood at 0.07.

B11: Phage-847 (peptide)
peptide: YCDGHVQEYMQKCL
notes: as for B1
As for B11, in experiment [5], the “Anti-CD28 Fab signal in the presence of CD28” value stood at 0.07. In addition, the “Anti-CD28 Fab (SEQ ID NOs: 696, 697) signal” value in experiment [6] is 1.76.

As to YCEGHSPQYVQKCL [Phage-834 (Peptide-87 library sequence, SEQ ID NO: 1150)], in experiment [3], the “Phage binding ELISA … of CD28” value was 0.06. Moreover, in experiment [4], the “Phage binding ELISA, Anti-CD28 Fab signal” value amounted to 1.77.

On to YCDGHAPMYMAKCL [Phage-826 (Peptide-87 library peptide, SEQ ID NO: 1142)], for which the “Phage binding ELISA, Anti-CD28 Fab signal” value in experiment [1] turned out to be 1.79. For the same molecule, in experiment [2], the “Phage binding ELISA … of CD28” value was 0.08.

B12: Phage-842 (peptide)
peptide: YCDGHSQEYMLKCL
modifications: cysteine pairing not given here; also: displayed on phage by fusion to pIII, pIII and linker sequence not given here
notes: as for B1
On to B12, for which the “Anti-CD28 Fab signal in the presence of CD28” value in experiment [5] turned out to be 0.05. For the same molecule, the “Anti-CD28 Fab (SEQ ID NOs: 696, 697) signal” value in experiment [6] came out at 1.76.

In the case of YCDGHSSEYIAKCL [Phage-833 (Peptide-87 library sequence, SEQ ID NO: 1149)], in experiment [3], the “Phage binding ELISA … of CD28” value was 0.07. In addition, the “Phage binding ELISA, Anti-CD28 Fab signal” value in experiment [4] turned out to be 1.77.

B13: Phage-843 (peptide)
peptide: YCDGHVEPYLSKCL
modifications: cysteine pairing not given here; also: displayed on phage by fusion to pIII, pIII and linker sequence not given here
notes: as for B1
Regarding B13, the “Anti-CD28 Fab signal in the presence of CD28” value in experiment [5] was 0.1. Further, the “Anti-CD28 Fab (SEQ ID NOs: 696, 697) signal” value in experiment [6] came out at 1.76.
